Experimental data as given in the supplement of paper PMC6757056.
± gives the standard deviation of the averaged measurements.

B1: library; a variant is named by its letters at N, in order (parent)
chain: GCUGUCACCGGUGUAUUACCCUAGUGGUCGACCGGUCUGAUGAGUCUNNNNNNAGACGAAACAGC

Assays:
[1] = variants of: B1; assay: normalized RNA/DNA level with ligand (relative to sTRSVctl = 100) (log10 (% of sTRSVctl)); ligand: hypoxanthine (xanthine aptamer); higher = less ribozyme self-cleavage, higher mRNA level; details: ligand concentration (+) RNA-Seq: 5 mM, HEK293T, reporter: mCherry (pCS4076), ligand present: yes
Method in brief: (§1)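 Ribozyme switch library plasmids with mCherry reporters (eGFP in certain ligand experiments) went into HEK293T cells at 4 µg per 6-well well. Where ligand was used, it was applied 1 h before transfection, and total RNA was extracted with EDTA 72 h later for reverse transcription, amplification, barcoding and sequencing. RNA level is the RNA-to-DNA read ratio normalized to a spiked-in non-cleaving sequence or to the leading sequences, then scaled and log-transformed. Scaling was ×100 with log10, the leading set comprised 25 sequences, and the cutoff was ≥100 DNA reads.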

[2] = variants of: B1; assay: normalized RNA/DNA level without ligand (relative to sTRSVctl = 100) (log10 (% of sTRSVctl)); ligand: hypoxanthine (xanthine aptamer); higher = less ribozyme self-cleavage, higher mRNA level; details: HEK293T, reporter: mCherry (pCS4076), ligand present: no
Method in brief: as §1

Variant | normalized RNA/DNA level with ligand (log10) [1] | normalized RNA/DNA level without ligand (log10) [2]
GCUGUCACCGGUGUAUUACCCUAGUGGUCGACCGGUCUGAUGAGUCUACCCAAAGACGAAACAGC [ACCCAA] | 1.896 ± 0.013 | 1.801 ± 0.013
GCUGUCACCGGUGUAUUACCCUAGUGGUCGACCGGUCUGAUGAGUCUACCCACAGACGAAACAGC [ACCCAC] | 1.921 ± 0.0048 | 1.792 ± 0.0063
GCUGUCACCGGUGUAUUACCCUAGUGGUCGACCGGUCUGAUGAGUCUCCCCACAGACGAAACAGC [CCCCAC] | 1.987 ± 0.018 | 1.9 ± 0.073
GCUGUCACCGGUGUAUUACCCUAGUGGUCGACCGGUCUGAUGAGUCUGCCAGCAGACGAAACAGC [GCCAGC] | 1.97 ± 0.047 | 1.81 ± 0.055
GCUGUCACCGGUGUAUUACCCUAGUGGUCGACCGGUCUGAUGAGUCUGCCAGGAGACGAAACAGC [GCCAGG] | 1.872 ± 0.0046 | 1.43 ± 0.1
GCUGUCACCGGUGUAUUACCCUAGUGGUCGACCGGUCUGAUGAGUCUGCCAGAAGACGAAACAGC [GCCAGA] | 1.909 ± 0.0037 | 1.72 ± 0.056
GCUGUCACCGGUGUAUUACCCUAGUGGUCGACCGGUCUGAUGAGUCUGCCAGUAGACGAAACAGC [GCCAGU] | 1.92 ± 0.06 | 1.79 ± 0.046
GCUGUCACCGGUGUAUUACCCUAGUGGUCGACCGGUCUGAUGAGUCUUCCAGGAGACGAAACAGC [UCCAGG] | 1.9095 ± 0.00051 | 1.8002 ± 0.0018
GCUGUCACCGGUGUAUUACCCUAGUGGUCGACCGGUCUGAUGAGUCUUCCAGCAGACGAAACAGC [UCCAGC] | 2.03 ± 0.048 | 1.9 ± 0.082
GCUGUCACCGGUGUAUUACCCUAGUGGUCGACCGGUCUGAUGAGUCUUCCAGAAGACGAAACAGC [UCCAGA] | 1.93 ± 0.054 | 1.78 ± 0.048
GCUGUCACCGGUGUAUUACCCUAGUGGUCGACCGGUCUGAUGAGUCUACCACGAGACGAAACAGC [ACCACG] | 1.91 ± 0.032 | 1.67 ± 0.023
GCUGUCACCGGUGUAUUACCCUAGUGGUCGACCGGUCUGAUGAGUCUACCACCAGACGAAACAGC [ACCACC] | 2.012 ± 0.02 | 1.927 ± 0.0086
GCUGUCACCGGUGUAUUACCCUAGUGGUCGACCGGUCUGAUGAGUCUACCACUAGACGAAACAGC [ACCACU] | 1.96 ± 0.023 | 1.92 ± 0.048
GCUGUCACCGGUGUAUUACCCUAGUGGUCGACCGGUCUGAUGAGUCUACCACAAGACGAAACAGC [ACCACA] | 1.94 ± 0.044 | 1.902 ± 0.0069
GCUGUCACCGGUGUAUUACCCUAGUGGUCGACCGGUCUGAUGAGUCUCCCAUGAGACGAAACAGC [CCCAUG] | 1.933 ± 0.0045 | 1.81 ± 0.048
GCUGUCACCGGUGUAUUACCCUAGUGGUCGACCGGUCUGAUGAGUCUCCCAUAAGACGAAACAGC [CCCAUA] | 1.9 ± 0.06 | 1.89 ± 0.11
GCUGUCACCGGUGUAUUACCCUAGUGGUCGACCGGUCUGAUGAGUCUCCCAUUAGACGAAACAGC [CCCAUU] | 2 ± 0.03 | 1.927 ± 0.0023
GCUGUCACCGGUGUAUUACCCUAGUGGUCGACCGGUCUGAUGAGUCUUCCCAAAGACGAAACAGC [UCCCAA] | 1.918 ± 0.011 | 1.765 ± 0.0033
GCUGUCACCGGUGUAUUACCCUAGUGGUCGACCGGUCUGAUGAGUCUCCCACCAGACGAAACAGC [CCCACC] | 2.01 ± 0.063 | 1.96 ± 0.032
GCUGUCACCGGUGUAUUACCCUAGUGGUCGACCGGUCUGAUGAGUCUCCCACUAGACGAAACAGC [CCCACU] | 1.96 ± 0.037 | 1.87 ± 0.022
GCUGUCACCGGUGUAUUACCCUAGUGGUCGACCGGUCUGAUGAGUCUCCCACGAGACGAAACAGC [CCCACG] | 1.917 ± 0.019 | 1.83 ± 0.029

Variant | normalized RNA/DNA level with ligand (log10) [1] | normalized RNA/DNA level without ligand (log10) [2]
GCUGUCACCGGUGUAUUACCCUAGUGGUCGACCGGUCUGAUGAGUCUCCCAGCAGACGAAACAGC [CCCAGC] | 1.999 ± 0.0073 | 1.877 ± 0.013
GCUGUCACCGGUGUAUUACCCUAGUGGUCGACCGGUCUGAUGAGUCUCCCAGGAGACGAAACAGC [CCCAGG] | 1.934 ± 0.018 | 1.83 ± 0.019
GCUGUCACCGGUGUAUUACCCUAGUGGUCGACCGGUCUGAUGAGUCUCCCAGAAGACGAAACAGC [CCCAGA] | 1.93 ± 0.048 | 1.83 ± 0.046
GCUGUCACCGGUGUAUUACCCUAGUGGUCGACCGGUCUGAUGAGUCUCCCAGUAGACGAAACAGC [CCCAGU] | 1.934 ± 0.0021 | 1.89 ± 0.032
GCUGUCACCGGUGUAUUACCCUAGUGGUCGACCGGUCUGAUGAGUCUUCCAUAAGACGAAACAGC [UCCAUA] | 1.899 ± 0.018 | 1.88 ± 0.024
GCUGUCACCGGUGUAUUACCCUAGUGGUCGACCGGUCUGAUGAGUCUUCCAUUAGACGAAACAGC [UCCAUU] | 1.959 ± 0.0064 | 1.89 ± 0.05
GCUGUCACCGGUGUAUUACCCUAGUGGUCGACCGGUCUGAUGAGUCUACCAUGAGACGAAACAGC [ACCAUG] | 1.91 ± 0.02 | 1.571 ± 0.013
GCUGUCACCGGUGUAUUACCCUAGUGGUCGACCGGUCUGAUGAGUCUGCCAUUAGACGAAACAGC [GCCAUU] | 1.96 ± 0.013 | 1.918 ± 0.01
GCUGUCACCGGUGUAUUACCCUAGUGGUCGACCGGUCUGAUGAGUCUACCAGGAGACGAAACAGC [ACCAGG] | 1.832 ± 0.015 | 1.44 ± 0.064
GCUGUCACCGGUGUAUUACCCUAGUGGUCGACCGGUCUGAUGAGUCUACCAGAAGACGAAACAGC [ACCAGA] | 1.952 ± 0.009 | 1.77 ± 0.024
GCUGUCACCGGUGUAUUACCCUAGUGGUCGACCGGUCUGAUGAGUCUACCAGCAGACGAAACAGC [ACCAGC] | 1.993 ± 0.0011 | 1.94 ± 0.043
GCUGUCACCGGUGUAUUACCCUAGUGGUCGACCGGUCUGAUGAGUCUGCCACAAGACGAAACAGC [GCCACA] | 1.958 ± 0.0033 | 1.871 ± 0.0054
GCUGUCACCGGUGUAUUACCCUAGUGGUCGACCGGUCUGAUGAGUCUGCCACUAGACGAAACAGC [GCCACU] | 1.99 ± 0.065 | 1.965 ± 0.0028
GCUGUCACCGGUGUAUUACCCUAGUGGUCGACCGGUCUGAUGAGUCUGCCACGAGACGAAACAGC [GCCACG] | 1.905 ± 0.0023 | 1.656 ± 0.0069
GCUGUCACCGGUGUAUUACCCUAGUGGUCGACCGGUCUGAUGAGUCUGCCACCAGACGAAACAGC [GCCACC] | 1.905 ± 0.011 | 1.834 ± 0.0019
GCUGUCACCGGUGUAUUACCCUAGUGGUCGACCGGUCUGAUGAGUCUUCCAAUAGACGAAACAGC [UCCAAU] | 1.94 ± 0.021 | 1.79 ± 0.018
GCUGUCACCGGUGUAUUACCCUAGUGGUCGACCGGUCUGAUGAGUCUGCCCAAAGACGAAACAGC [GCCCAA] | 1.94 ± 0.037 | 1.8 ± 0.021
GCUGUCACCGGUGUAUUACCCUAGUGGUCGACCGGUCUGAUGAGUCUGCCCACAGACGAAACAGC [GCCCAC] | 1.92 ± 0.023 | 1.76 ± 0.028
GCUGUCACCGGUGUAUUACCCUAGUGGUCGACCGGUCUGAUGAGUCUUCCACUAGACGAAACAGC [UCCACU] | 1.957 ± 0.0089 | 1.99 ± 0.07
GCUGUCACCGGUGUAUUACCCUAGUGGUCGACCGGUCUGAUGAGUCUUCCACAAGACGAAACAGC [UCCACA] | 1.96 ± 0.037 | 1.835 ± 0.0089
GCUGUCACCGGUGUAUUACCCUAGUGGUCGACCGGUCUGAUGAGUCUUCCACCAGACGAAACAGC [UCCACC] | 2.02 ± 0.029 | 1.931 ± 0.018
